Test [1] has as its target E. coli scaffold protein IscU (Escherichia coli) (UniProt P0ACD4). The experiment in a line: non-reducing SDS-PAGE with densitometry.
The target is the same in test [2]. Kind of test: native MS.
Test [3] concerns the target E. coli cysteine desulfurase IscS (Escherichia coli) (UniProt P0A6B7). Kind of test: native MS.
The target of test [4] is E. coli scaffold protein IscU (Escherichia coli) (UniProt P0ACD4). The experiment in a line: native MS. This is another data set of the same source.

Like-named read-outs stand apart in the source and are kept apart here.

UniProt P0A6B7, sequence (P0A6B7 whole entry): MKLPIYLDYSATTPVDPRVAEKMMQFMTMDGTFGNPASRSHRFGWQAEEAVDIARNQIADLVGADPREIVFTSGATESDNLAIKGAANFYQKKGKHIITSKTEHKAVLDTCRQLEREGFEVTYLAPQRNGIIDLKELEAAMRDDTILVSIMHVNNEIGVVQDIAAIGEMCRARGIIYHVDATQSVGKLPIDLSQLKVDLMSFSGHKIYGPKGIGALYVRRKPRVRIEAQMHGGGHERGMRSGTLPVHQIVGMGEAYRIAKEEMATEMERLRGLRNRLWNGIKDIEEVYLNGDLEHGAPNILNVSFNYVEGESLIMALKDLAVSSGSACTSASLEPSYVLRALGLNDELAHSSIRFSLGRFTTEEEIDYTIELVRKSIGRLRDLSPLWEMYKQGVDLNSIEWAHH

The stoichiometry N is a count of units in the complex or per binding partner. As for “E. coli scaffold protein IscU (from UniProt P0ACD4 1-128) (natural protein)”, the percent dimer in test [1] is 65%. Also, in test [2], the percent dimer (of the monomer-to-dimer ratio) was determined as 14%. Besides, in test [3], the fraction of IscS2 lacking IscU came out at 11%, the fraction of the IscU2–IscS2 complex is 94%, the fraction of the IscU2–IscS2 species came out at 86% and the fraction of the IscU-IscS2 complex amounted to 47%. In test [3], this substance yielded a fraction of the IscU-IscS2 species of 6% and a stoichiometry N (IscU per IscS dimer) of 2. Besides, in test [4], the percent dimer amounted to 59%, the percent dimer (of the monomer-to-dimer ratio) amounted to 22% and the stoichiometry N is 2.

The values are drawn from PMC7262672.
